# In US20190038721A1 (Novo Nordisk, published 2019):
# Starred links: 1 amine or outer side, 2 acyl side, 3 side chain; linkers in the order of their positions; H or OH if unused. Non-standard residues stand in square brackets, D forms with d. Groups on a side chain read outwards from the residue. No end group written: not given here. *: point of attachment. 2‑(bis(3-aminopropyl)amino)acetyl = branch point, each 3-aminopropyl arm carries one of the two bracketed chains; 4‑(aminomethyl)cyclohexanecarbonyl = 4-(aminomethyl)cyclohexanecarbonyl linker unit; Undecanoyl(11-OPh(4-COOH)) = O=C(O)c1ccc(OCCCCCCCCCCC(=O)*)cc1; Decanoyl(10-(4-HOOC-PhO)) = O=C(O)c1ccc(OCCCCCCCCCC(=O)*)cc1; Decanoyl(10-O(3-COOH-Ph)) = O=C(O)c1cccc(OCCCCCCCCCC(=O)*)c1; C20 diacid = O=C(O)CCCCCCCCCCCCCCCCCCC(=O)*; γGlu = O=C(O)[C@H](CCC(=O)[*:2])N[*:1]; C14 diacid = O=C(O)CCCCCCCCCCCCC(=O)*; Palmitoyl = CCCCCCCCCCCCCCCC(=O)*; AEEA = NCCOCCOCC(=O)O; Aib = CC(C)(N)C(=O)O
# What was measured:
# human GLP-1 receptor [1] = target: T1, human GLP-1 receptor (human, UniProt P43220 24-463); assay: competitive binding (SPA), displacement of 125I-GLP-1(7-36)NH2 from membranes with human GLP-1 receptor, high HSA (2.0% w/v)
# T1 construct: whole, on cells
# Description: (§1) 1. For the receptor binding assay in the presence of low HSA (0.005% (w/v)) 50 μl of the assay buffer was added to each well of an assay plate. Assay continued with step 3. 2. For the receptor binding assay in the presence of high HSA (2% (w/v)) 50 μl of the 8% (w/v) albumin stock was added to each well of an assay plate. Assay continued with step 3. 3. […] 4. Cell membrane aliquots were thawed and diluted to their working concentration. Fifty μl were added to each well in the assay plate. 5. WGA SPA beads were suspended in assay buffer at 20 mg/ml. The suspension was diluted to 10 mg/ml in assay buffer just prior to addition to the assay plate. Fifty μl were added to each well in the assay plate. 6. […] A 25 μl aliquot was reserved for measuring total counts/well. 7. The assay plate was incubated for 2 h at 30° C. 8. The assay plate was centrifuged for 10 min. 9. The assay plate was read in a Packard TopCount NXT instrument.
# (§2) Individual replicates were analysed using non-linear regression in GraphPad Prism.
# human GLP-1 receptor [2] = target: T1, human GLP-1 receptor; assay: competitive binding (SPA), displacement of 125I-GLP-1(7-36)NH2 from membranes with human GLP-1 receptor, low HSA
# Description: as §1, §2
# human GLP-1 receptor [3] = target: T1, human GLP-1 receptor; assay: cell-based or functional assay
Binder,IC50 (human GLP-1 receptor [1]) [nM],IC50 (human GLP-1 receptor [2]) [nM],"EC50 (pM), in vitro potency, CRE luciferase reporter gene assay in BHK cells (human GLP-1 receptor [3]) [pM]"
HWEGTFTSDVSSYLEEQAARK([AEEA-AEEA-γGlu-Decanoyl(10-(4-HOOC-PhO))])FIEWLVRGK([AEEA-AEEA-γGlu-Decanoyl(10-(4-HOOC-PhO))])GEG,84.9,1.03,2.7
HWEGTFTSDVSSYLEGQAAK([AEEA-AEEA-γGlu-Decanoyl(10-(4-HOOC-PhO))])EFIAWLVRGRK([AEEA-AEEA-γGlu-Decanoyl(10-(4-HOOC-PhO))]),771,6.23,30
HWEGTFTSDVSSYLEEQAAREFIAWLVRGRK([AEEA-AEEA-2‑(bis(3-aminopropyl)amino)acetyl-AEEA-AEEA-AEEA-AEEA-γGlu-4‑(aminomethyl)cyclohexanecarbonyl-C20 diacid)+(AEEA-AEEA-AEEA-AEEA-γGlu-4‑(aminomethyl)cyclohexanecarbonyl-C20 diacid]) (also called 13) [N{Epsilon-37}-[2-[2-[2-[[2-[2-[2-[[2-[bis[3-[[2-[2-[2-[[2-[2-[2-[[2-[2-[2-[[2-[2-[2-[[(4 …],71.6,,32.1
HWEGTFTSDVSSYLEEQAAREFIAWLVRGK([AEEA-AEEA-γGlu-Undecanoyl(11-OPh(4-COOH))])K([AEEA-AEEA-γGlu-Undecanoyl(11-OPh(4-COOH))]),,0.535,
HWEGTFTSDVSSYLEGQAAKEFIAWLVKGRG (also called 8W GLP-1(7-37)) [[Trp8]-GLP-1-(7-37)-peptide],0.208,0.67,12
HWEGTFTSDVSSYLEEQAAREFIAWLVRGRK([Lys-AEEA-AEEA-AEEA-AEEA-AEEA-AEEA-γGlu-4‑(aminomethyl)cyclohexanecarbonyl-C20 diacid)+(AEEA-AEEA-AEEA-AEEA-AEEA-AEEA-γGlu-4‑(aminomethyl)cyclohexanecarbonyl-C20 diacid]) (also called 10),123,,31.2
HWEGTFTSDVSSYLEEQAAREFIAWLVRGK([AEEA-AEEA-AEEA-AEEA-γGlu-C14 diacid])K([AEEA-AEEA-AEEA-AEEA-γGlu-C14 diacid]),,0.55,
"HPEGTFTSDVSSYLEEQAAREFIAWLVKGRG [[Pro8,Glu22,Arg26]-GLP-1-(7-37)-peptide]",0.035,0.075,0.57
"HWEGTFTSDVSSYLEGQAAK([γGlu-Palmitoyl])EFIAWLVRGRG [N{Epsilon-26}-[(4S)-4-carboxy-4-(hexadecanoylamino)butanoyl]-[Trp8,Arg34]-GLP-1-(7-37)-peptide]",,,21
HWEGTFTSDVSSYLEEQAAREFIAWLVRGK([AEEA-AEEA-γGlu-Decanoyl(10-O(3-COOH-Ph))])K([AEEA-AEEA-γGlu-Decanoyl(10-O(3-COOH-Ph))]),,0.405,
"HWEGTFTSDVSSYLEEQAAREFIAWLVRGRK([AEEA-AEEA-2,6‑diaminohexanoyl-AEEA-AEEA-AEEA-AEEA-γGlu-4‑(aminomethyl)cyclohexanecarbonyl-C20 diacid)+(AEEA-AEEA-AEEA-AEEA-γGlu-4‑(aminomethyl)cyclohexanecarbonyl-C20 diacid]) (the claim prints (2S)-2,6-bis; also called 12)",51.8,,62.9
HGEGTFTSDVSSYLEGQAAKEFIAWLVKGRG [[Gly8]-GLP-1-(7-37)-peptide],0.62,2.64,32
"H[Aib]EGTFTSDVSSYLEEQAARKFIEWLVRGKGEG (not fully specified (residues 21, 30); also: Lys21 and Lys30 acylated as, structure not given here) [Comparative Example 3A (Example 31 of WO 2012/140117)]",134,0.26,0.53
"H[Aib]EGTFTSDVSSYLEEQAAREFIAWLVRGRPK (also: Lys32 acylated as, structure not given here) [Comparative Example 11A (Example 10 of WO 2016/083499)]",34.4,0.401,12.5
HWEGTFTSDVSSYLEEQAAREFIAWLVRGRGK([AEEA-AEEA-γGlu-4‑(aminomethyl)cyclohexanecarbonyl-C20 diacid])GGSK([AEEA-AEEA-γGlu-4‑(aminomethyl)cyclohexanecarbonyl-C20 diacid]),305,,70.5
H[Aib]EGTFTSDVSSYLEEQAAREFIAWLVRGRGKGGSK (also: the two extension Lys residues acylated as in the compound) [Comparative Example 9A (Example 3 of WO 2015/000942)],235,1.04,41.3
